Positions count from the first letter of the chain named.

From paper PMC7875338 (ACS synthetic biology, 2021) come the findings set out here.

In this assay the target is beta-galactosidase (β-gal), negative control expressed in HEK293T cells (Escherichia coli K12 lacZ, assumed, UniProt P00722 = β-galactosidase). The experiment in a line: immunostaining of cells or tissue.
Chain of beta-galactosidase (β-gal), negative control expressed in HEK293T cells (P00722 whole entry): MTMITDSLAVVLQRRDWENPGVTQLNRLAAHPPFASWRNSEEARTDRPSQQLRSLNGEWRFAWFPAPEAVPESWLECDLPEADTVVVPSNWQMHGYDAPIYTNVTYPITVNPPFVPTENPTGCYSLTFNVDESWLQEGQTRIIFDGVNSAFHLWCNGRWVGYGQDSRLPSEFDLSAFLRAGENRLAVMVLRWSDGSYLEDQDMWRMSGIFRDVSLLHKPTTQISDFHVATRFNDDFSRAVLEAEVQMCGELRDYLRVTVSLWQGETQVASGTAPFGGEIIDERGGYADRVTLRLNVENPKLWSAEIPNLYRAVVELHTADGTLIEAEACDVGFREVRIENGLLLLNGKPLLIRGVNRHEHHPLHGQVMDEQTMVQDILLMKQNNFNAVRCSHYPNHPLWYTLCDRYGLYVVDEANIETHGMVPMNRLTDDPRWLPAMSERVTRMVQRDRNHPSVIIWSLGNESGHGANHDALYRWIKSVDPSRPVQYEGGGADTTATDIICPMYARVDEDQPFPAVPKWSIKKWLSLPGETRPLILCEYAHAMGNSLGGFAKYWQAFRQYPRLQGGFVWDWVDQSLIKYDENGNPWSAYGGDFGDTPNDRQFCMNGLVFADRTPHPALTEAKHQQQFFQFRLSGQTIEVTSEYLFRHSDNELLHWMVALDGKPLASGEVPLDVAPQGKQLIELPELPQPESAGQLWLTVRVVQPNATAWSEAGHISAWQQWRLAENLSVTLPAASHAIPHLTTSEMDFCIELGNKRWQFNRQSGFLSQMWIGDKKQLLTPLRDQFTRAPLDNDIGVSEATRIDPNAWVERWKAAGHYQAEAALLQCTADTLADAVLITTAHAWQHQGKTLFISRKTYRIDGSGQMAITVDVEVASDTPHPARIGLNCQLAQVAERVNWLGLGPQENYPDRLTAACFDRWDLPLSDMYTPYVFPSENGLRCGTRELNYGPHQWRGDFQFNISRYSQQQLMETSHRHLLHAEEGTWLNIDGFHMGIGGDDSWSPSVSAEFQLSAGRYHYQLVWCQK

B1: sdAb WuN1-APEX2 fusion protein (VHH)
VHH: QVKLQQSGGGLVQAGGSLRLSCAPSGRTFSVNAMGWYRQAPGKQREPVALISTGGSTNYADSVKGRFTITRDNVKNTVYLQMNTLKPEDTAVYYCYTERWKPRGIERDWGQGTQVTVSS
As for B1, the binding result is given as “no binding (tested: 100 nM)”.

B2: sdAb WuN3-APEX2 fusion protein (VHH)
VHH: B1 VHH with Q1K, A14T, T70S
Regarding B2, the binding result is recorded as “no binding (tested: 100 nM)”.
